Measurements: publication PMC10208126 (mAbs, 2023)

Tests used:
[1] = biological target: T1, Human IL1RAPL1-Fc (human, UniProt Q9NZN1 19-357); assay: ELISA
T1 sequence (looked up): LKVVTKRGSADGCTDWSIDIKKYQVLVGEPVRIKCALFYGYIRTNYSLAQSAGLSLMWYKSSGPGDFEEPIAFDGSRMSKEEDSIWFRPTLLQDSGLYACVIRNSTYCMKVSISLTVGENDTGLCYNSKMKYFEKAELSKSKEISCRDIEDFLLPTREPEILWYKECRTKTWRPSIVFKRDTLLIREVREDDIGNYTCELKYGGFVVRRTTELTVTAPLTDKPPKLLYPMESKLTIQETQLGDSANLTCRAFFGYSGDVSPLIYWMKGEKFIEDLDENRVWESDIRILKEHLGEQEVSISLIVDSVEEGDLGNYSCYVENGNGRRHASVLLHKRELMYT

[2] = biological target: T2, Human IL-36R-Fc (human, UniProt Q9HB29 20-335); assay: ELISA
T2 sequence (looked up): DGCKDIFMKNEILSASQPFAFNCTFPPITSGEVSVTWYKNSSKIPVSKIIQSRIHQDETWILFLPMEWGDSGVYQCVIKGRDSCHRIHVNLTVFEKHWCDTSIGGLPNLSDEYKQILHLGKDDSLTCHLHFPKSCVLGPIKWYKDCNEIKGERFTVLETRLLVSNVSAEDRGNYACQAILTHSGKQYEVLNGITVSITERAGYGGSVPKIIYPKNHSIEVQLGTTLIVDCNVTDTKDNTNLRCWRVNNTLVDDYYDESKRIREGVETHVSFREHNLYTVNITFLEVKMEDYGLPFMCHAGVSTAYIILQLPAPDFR

B1: Recombinant full length human IL-38 (ligand, UniProt Q8WWZ1 1-152, looked up)
chain: MCSLPMARYYIIKYADQKALYTRDGQLLVGDPVADNCCAEKICILPNRGLARTKVPIFLGIQGGSRCLACVETEEGPSLQLEDVNIEELYKGGEEATRFTFFQSSSGSAFRLEAAAWPGWFLCGPAEPQQPVQLTKESEPSARTKFYFEQSW
B1: binds [1]; binds [2].
